The values that follow come from article PMC6555819, “Comprehensive study of nuclear receptor DNA binding provides a revised framework for understanding receptor specificity”.

Sequences and labels used below:
B1: NRC3_wobSeed102_DR4_A9C_o1 (dsDNA)
DNA 1: GCCCTAGCCGGCCAATCTGGGTCACTCAAGGCTTGAGCGATTGACAGCGTAGAATGAAGG
DNA 2: CCTTCATTCTACGCTGTCAATCGCTCAAGCCTTGAGTGACCCAGATTGGCCGGCTAGGGC
B2: NRC3_wobSeed36_DR1_G9T_o1 (dsDNA)
DNA 1: GCCCGACTTGGGCAAAGGTTACCATACTCAGTACGAGCGATTGACAGCGTAGAATGAAGG
DNA 2: CCTTCATTCTACGCTGTCAATCGCTCGTACTGAGTATGGTAACCTTTGCCCAAGTCGGGC
B3: NRC3_wobSeed31_DR1_A15T_o1 (dsDNA)
DNA 1: GCTCATATAGGTAATAGGTGAAAGTCGGTGTGGTAAGCGATTGACAGCGTAGAATGAAGG
DNA 2: CCTTCATTCTACGCTGTCAATCGCTTACCACACCGACTTTCACCTATTACCTATATGAGC
B4: NRC3_wobSeed75_DR3_G24A_o1 (dsDNA)
DNA 1: GCTCTCGGAGGACACGAAGGTCAAAGCTTTCCAGAGGCGATTGACAGCGTAGAATGAAGG
DNA 2: CCTTCATTCTACGCTGTCAATCGCCTCTGGAAAGCTTTGACCTTCGTGTCCTCCGAGAGC
B5: NRC3_wobSeed98_DR4_A28T_o1 (dsDNA)
DNA 1: GCACTAGTTGGTCAGCTGAGGTCACACTCAATTCGGGCGATTGACAGCGTAGAATGAAGG
DNA 2: CCTTCATTCTACGCTGTCAATCGCCCGAATTGAGTGTGACCTCAGCTGACCAACTAGTGC
B6: NRC3_wobSeed64_DR2_G18T_o1 (dsDNA)
DNA 1: GCTAGCCTAGGTCATTGTGCCAGTATAGTACGCATCGCGATTGACAGCGTAGAATGAAGG
DNA 2: CCTTCATTCTACGCTGTCAATCGCGATGCGTACTATACTGGCACAATGACCTAGGCTAGC
B7: NRC3_wobSeed20_DR0_C19T_o1 (dsDNA)
DNA 1: GCAGAATGAGGTTAAGATTAGGGAAACAGAATACATGCGATTGACAGCGTAGAATGAAGG
DNA 2: CCTTCATTCTACGCTGTCAATCGCATGTATTCTGTTTCCCTAATCTTAACCTCATTCTGC
B8: NRC3_wobSeed116_DR4_A18G_o1 (dsDNA)
DNA 1: GCAGAATGAGGTTACCAGAGATCAGGGAAACGCTTGGCGATTGACAGCGTAGAATGAAGG
DNA 2: CCTTCATTCTACGCTGTCAATCGCCAAGCGTTTCCCTGATCTCTGGTAACCTCATTCTGC
B9: NRC3_wobSeed116_DR4_A6T_o1 (dsDNA)
DNA 1: GCAGATTGAGGTTACCAAAGATCAGGGAAACGCTTGGCGATTGACAGCGTAGAATGAAGG
DNA 2: CCTTCATTCTACGCTGTCAATCGCCAAGCGTTTCCCTGATCTTTGGTAACCTCAATCTGC
B10: NRC3_wobSeed116_DR4_C15A_o1 (dsDNA)
DNA 1: GCAGAATGAGGTTAACAAAGATCAGGGAAACGCTTGGCGATTGACAGCGTAGAATGAAGG
DNA 2: CCTTCATTCTACGCTGTCAATCGCCAAGCGTTTCCCTGATCTTTGTTAACCTCATTCTGC
B11: NRC3_wobSeed134_DR5_A30G_o1 (dsDNA)
DNA 1: GCGCTGCTAGGTCAACTGATGGTCAGCTAGAGCTCGGCGATTGACAGCGTAGAATGAAGG
DNA 2: CCTTCATTCTACGCTGTCAATCGCCGAGCTCTAGCTGACCATCAGTTGACCTAGCAGCGC
B12: NRC3_wobSeed47_DR1_A5T_o1 (dsDNA)
DNA 1: GCGGTACGAGGGCAAAGTTGATAGCATCTGTCGACGGCGATTGACAGCGTAGAATGAAGG
DNA 2: CCTTCATTCTACGCTGTCAATCGCCGTCGACAGATGCTATCAACTTTGCCCTCGTACCGC
B13: NRC3_wobSeed43_DR1_G26C_o1 (dsDNA)
DNA 1: GCCCAGACAGGTGAAAGGTAACTCACTCTGGTACGCGCGATTGACAGCGTAGAATGAAGG
DNA 2: CCTTCATTCTACGCTGTCAATCGCGCGTACCAGAGTGAGTTACCTTTCACCTGTCTGGGC
B14: NRC3_wobSeed69_DR2_C15G_o1 (dsDNA)
DNA 1: GCAGTCAAAGTTCAGTAGGTAACGTAAGATTCAGCTGCGATTGACAGCGTAGAATGAAGG
DNA 2: CCTTCATTCTACGCTGTCAATCGCAGCTGAATCTTACGTTACCTACTGAACTTTGACTGC
B15: NRC3_wobSeed14_DR0_C22G_o1 (dsDNA)
DNA 1: GCCCTGCTAGGTCATGGTCAGGTAATCTACAGTATGGCGATTGACAGCGTAGAATGAAGG
DNA 2: CCTTCATTCTACGCTGTCAATCGCCATACTGTAGATTACCTGACCATGACCTAGCAGGGC
B16: NRC3_wobSeed14_DR0_T5C_o1 (dsDNA)
DNA 1: GCCCCGCTAGGTCATGGTCAGCTAATCTACAGTATGGCGATTGACAGCGTAGAATGAAGG
DNA 2: CCTTCATTCTACGCTGTCAATCGCCATACTGTAGATTAGCTGACCATGACCTAGCGGGGC
B17: NRC3_wobSeed110_DR4_T27G_o1 (dsDNA)
DNA 1: GCTCTGCTAGGTCAACGATGGTCAGCGAATCTGCTAGCGATTGACAGCGTAGAATGAAGG
DNA 2: CCTTCATTCTACGCTGTCAATCGCTAGCAGATTCGCTGACCATCGTTGACCTAGCAGAGC
B18: NRC3_wobSeed34_DR1_A9G_o1 (dsDNA)
DNA 1: GCATCGAAGGGTCGAAGGTGAGTATACCCACCCGAAGCGATTGACAGCGTAGAATGAAGG
DNA 2: CCTTCATTCTACGCTGTCAATCGCTTCGGGTGGGTATACTCACCTTCGACCCTTCGATGC
B19: NRC3_wobSeed26_DR1_A21T_o1 (dsDNA)
DNA 1: GCTCTAGTTGGTCAAAGGTCTCACACTCGAAATGCGGCGATTGACAGCGTAGAATGAAGG
DNA 2: CCTTCATTCTACGCTGTCAATCGCCGCATTTCGAGTGTGAGACCTTTGACCAACTAGAGC
B20: NRC3_wobSeed26_DR1_T19C_o1 (dsDNA)
DNA 1: GCTCTAGTTGGTCAAAGGCCACACACTCGAAATGCGGCGATTGACAGCGTAGAATGAAGG
DNA 2: CCTTCATTCTACGCTGTCAATCGCCGCATTTCGAGTGTGTGGCCTTTGACCAACTAGAGC
B21: NRC3_wobSeed72_DR2_A22G_o1 (dsDNA)
DNA 1: GCTCGAGTAGGTTACGGGGGCGTTCAGGGATGAAGAGCGATTGACAGCGTAGAATGAAGG
DNA 2: CCTTCATTCTACGCTGTCAATCGCTCTTCATCCCTGAACGCCCCCGTAACCTACTCGAGC
B22: NRC3_wobSeed38_DR1_o1 (dsDNA)
DNA 1: GCCCTGCTAGGTCAATGGTCAGCTAAAGCAGCTCGCGCGATTGACAGCGTAGAATGAAGG
DNA 2: CCTTCATTCTACGCTGTCAATCGCGCGAGCTGCTTTAGCTGACCATTGACCTAGCAGGGC
B23: NRC3_wobSeed7_DR0_T6G_o1 (dsDNA)
DNA 1: GCTCAGATAGGTAAAGGTGAAAGTCGAACGATATGAGCGATTGACAGCGTAGAATGAAGG
DNA 2: CCTTCATTCTACGCTGTCAATCGCTCATATCGTTCGACTTTCACCTTTACCTATCTGAGC
B24: NRC3_wobSeed141_DR5_G16C_o1 (dsDNA)
DNA 1: GCAGTCAAAGTTCAGCACGAGGTAACGTAAAGCACGGCGATTGACAGCGTAGAATGAAGG
DNA 2: CCTTCATTCTACGCTGTCAATCGCCGTGCTTTACGTTACCTCGTGCTGAACTTTGACTGC
B25: NRC3_wobSeed141_DR5_C26T_o1 (dsDNA)
DNA 1: GCAGTCAAAGTTCAGGACGAGGTAATGTAAAGCACGGCGATTGACAGCGTAGAATGAAGG
DNA 2: CCTTCATTCTACGCTGTCAATCGCCGTGCTTTACATTACCTCGTCCTGAACTTTGACTGC
B26: NRC3_wobSeed54_DR2_G15T_o1 (dsDNA)
DNA 1: GCTCTAGCAGGCCATAGGGTCACTCAAGAGGTACGGGCGATTGACAGCGTAGAATGAAGG
DNA 2: CCTTCATTCTACGCTGTCAATCGCCCGTACCTCTTGAGTGACCCTATGGCCTGCTAGAGC
B27: NRC3_wobSeed136_DR5_A30G_o1 (dsDNA)
DNA 1: GCTAGCCTAGGTCATTCAGGGGCCAGTATGGAAAGCGCGATTGACAGCGTAGAATGAAGG
DNA 2: CCTTCATTCTACGCTGTCAATCGCGCTTTCCATACTGGCCCCTGAATGACCTAGGCTAGC
B28: NRC3_wobSeed136_DR5_C24T_o1 (dsDNA)
DNA 1: GCTAGCCTAGGTCATTCAGGGGCTAGTATAGAAAGCGCGATTGACAGCGTAGAATGAAGG
DNA 2: CCTTCATTCTACGCTGTCAATCGCGCTTTCTATACTAGCCCCTGAATGACCTAGGCTAGC
B29: NRC3_wobSeed137_DR5_A25T_o1 (dsDNA)
DNA 1: GCATATGTAGGTTACATCCGGGTCTTTCAGGCTATGGCGATTGACAGCGTAGAATGAAGG
DNA 2: CCTTCATTCTACGCTGTCAATCGCCATAGCCTGAAAGACCCGGATGTAACCTACATATGC
B30: NRC3_wobSeed140_DR5_T15C_o1 (dsDNA)
DNA 1: GCAGAATGAGGTTACACGTAGATCAGGGAAGAAAGTGCGATTGACAGCGTAGAATGAAGG
DNA 2: CCTTCATTCTACGCTGTCAATCGCACTTTCTTCCCTGATCTACGTGTAACCTCATTCTGC
B31: NRC3_wobSeed124_DR5_C17G_o1 (dsDNA)
DNA 1: GCCCTACTGGGCCATTGAGAGGTCATTGATCATATGGCGATTGACAGCGTAGAATGAAGG
DNA 2: CCTTCATTCTACGCTGTCAATCGCCATATGATCAATGACCTCTCAATGGCCCAGTAGGGC

The target in the data set is PPARa:RXRa (Homo sapiens, UniProt Q07869;P19793 full;full). As to the kind of experiment: no ligand; PBM; 270 nM : 90 nM RXRa; PBS pH 7.4, 2% milk, 0.02% Triton X-100, 1 mM DTT, BSA, 0.4 mg/ml salmon testes DNA. The note with it: tags: GST kept;His cleaved; copies: 1;1; label: surface-attached array probe. An outline of the steps: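 Probes were double-stranded and carried 34-nt variable regions with direct-repeat seeds, single-nucleotide variants, half-site ablations and random human genomic background sequences, printed on custom Agilent 4×180K protein-binding microarrays. Arrays were incubated 1 h with ligand-free nuclear receptor dimers in PBS pH 7.4, 2% milk, 0.02% Triton X-100, 1 mM DTT, 0.2 mg/mL BSA and 0.4 mg/ml salmon testes DNA. Antibodies against each partner (one per run) detected binding, and scanned fluorescence was regression-normalized. Binding z-scores use the random background probes as reference.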
PPARa:RXRa, sequence (Q07869 whole entry, chain 1 of 2): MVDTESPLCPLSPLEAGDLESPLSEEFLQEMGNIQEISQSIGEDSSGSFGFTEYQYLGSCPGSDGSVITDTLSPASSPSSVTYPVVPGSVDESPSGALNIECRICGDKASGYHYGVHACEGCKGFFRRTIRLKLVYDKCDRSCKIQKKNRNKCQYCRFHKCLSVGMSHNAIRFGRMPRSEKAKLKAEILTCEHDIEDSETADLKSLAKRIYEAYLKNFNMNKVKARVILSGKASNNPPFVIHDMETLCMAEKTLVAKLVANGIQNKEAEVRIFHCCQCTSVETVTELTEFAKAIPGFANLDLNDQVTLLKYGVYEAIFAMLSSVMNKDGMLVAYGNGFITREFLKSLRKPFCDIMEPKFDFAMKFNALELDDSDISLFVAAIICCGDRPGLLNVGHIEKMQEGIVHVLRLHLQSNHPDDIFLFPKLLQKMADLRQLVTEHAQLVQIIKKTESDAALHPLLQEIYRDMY
PPARa:RXRa, sequence (P19793 whole entry, chain 2 of 2): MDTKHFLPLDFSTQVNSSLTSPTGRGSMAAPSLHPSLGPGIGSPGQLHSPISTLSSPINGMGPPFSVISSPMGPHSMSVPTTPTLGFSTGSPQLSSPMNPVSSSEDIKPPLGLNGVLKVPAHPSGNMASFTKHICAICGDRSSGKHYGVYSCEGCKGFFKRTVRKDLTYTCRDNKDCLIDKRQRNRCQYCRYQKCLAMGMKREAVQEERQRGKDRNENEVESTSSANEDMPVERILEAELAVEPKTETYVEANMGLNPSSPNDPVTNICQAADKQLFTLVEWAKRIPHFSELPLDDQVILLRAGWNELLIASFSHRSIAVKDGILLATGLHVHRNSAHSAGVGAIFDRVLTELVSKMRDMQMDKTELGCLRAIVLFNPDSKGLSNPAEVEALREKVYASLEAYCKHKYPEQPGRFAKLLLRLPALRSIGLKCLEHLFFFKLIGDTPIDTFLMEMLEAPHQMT
B1: the binding signal is 3.14 PBM z-score against 500 random probes.
The value for B2 was 3.64 PBM z-score against 500 random probes.
The value for B3 was 3.69 PBM z-score against 500 random probes; that for B4 was 3.46 PBM z-score against 500 random probes; that for B5 was 3.53 PBM z-score against 500 random probes.
The value for B6 was 3.37 PBM z-score against 500 random probes; that for B7 was 3.39 PBM z-score against 500 random probes; that for B8 was 3.63 PBM z-score against 500 random probes.
As for B9, the binding signal was 3.29 PBM z-score against 500 random probes.
In the case of B10, the binding signal was 3.61 PBM z-score against 500 random probes.
For the molecule B11, the binding signal was 3.59 PBM z-score against 500 random probes.
Regarding B12, the binding signal is 3.22 PBM z-score against 500 random probes.
Take B13: the binding signal was 3.54 PBM z-score against 500 random probes.
The value for B14 was 3.56 PBM z-score against 500 random probes; that for B15 was 3.51 PBM z-score against 500 random probes.
The value for B16 was 3.35 PBM z-score against 500 random probes.
In the case of B17 it was 3.11 PBM z-score against 500 random probes; in that of B18, 3.17 PBM z-score against 500 random probes; in that of B19, 3.41 PBM z-score against 500 random probes.
B20: the binding signal is 3.15 PBM z-score against 500 random probes.
In the case of B21, the binding signal was 3.48 PBM z-score against 500 random probes.
The value for B22 was 3.19 PBM z-score against 500 random probes.
For the molecule B23, the binding signal is 3.2 PBM z-score against 500 random probes.
As for B24, the binding signal is 3.7 PBM z-score against 500 random probes.
The value for B25 was 3.3 PBM z-score against 500 random probes; that for B26 was 3.24 PBM z-score against 500 random probes; that for B27 was 3.67 PBM z-score against 500 random probes.
The value for B28 was 3.65 PBM z-score against 500 random probes; that for B29 was 3.32 PBM z-score against 500 random probes; that for B30 was 3.5 PBM z-score against 500 random probes.
In the case of B31 it was 3.57 PBM z-score against 500 random probes.
